What was measured:
Photo-Met labeled CaM [1] = molecular target: Photo-Met labeled CaM (UniProt P0DP23); experiment: cross-linking; photo-cross-linking of photo-Met-labeled CaM (10 µM) with 10 µM segment-A, -B or -C; 20 mM HEPES, 250 mM NaCl, 0.5 mM TCEP, 7.5% glycerol, pH 7.2, 25 °C; free Ca2+ 75 nM to 1 mM (EGTA system); UV-A 360 nm; SDS-PAGE and LC-MS/MS
[2] = molecular target: CaM (bovine brain) (bovine) (UniProt P62157); experiment: cross-linking; chemical cross-linking (BS3, DSBU 1 mM; s-GMBS in two steps) of CaM (bovine brain, 10 µM) with 10 µM segment-A; 20 mM HEPES, 230 mM NaCl, 0.5 mM TCEP, 7.5% glycerol, pH 7.2, 25 °C; 750 nM and 1 mM Ca2+; SDS-PAGE and LC-MS/MS
[3] = molecular target: CaM (source not told for this experiment) (UniProt P62157); experiment: native MS; 10 µM CaM and segment-A in 300 mM ammonium acetate pH 7.0; residual Ca2+ around 5 µM
[4] = molecular target: CaM (source not told for this experiment) (UniProt P62157); experiment: native gel or EMSA; native gel electrophoresis of the CaM/segment-A complex (Figure S5)
Photo-Met labeled CaM [5] = molecular target: Photo-Met labeled CaM (UniProt P0DP23); experiment: cross-linking; photo-cross-linking of photo-Met-labeled CaM with segment-B, SDS-PAGE analysis (data not shown)
[6] = molecular target: biotinylated photo-Met-labeled CaM (UniProt P0DP23); experiment: SPR; biotinylated photo-Met-CaM immobilised on streptavidin on a PEG-biotin chip; segment-C and variants injected at 0.1–1 µM in 20 mM HEPES, 230 mM NaCl, 0.5 mM TCEP, pH 7.2; 30 µL/min

bMunc13-2 segment-A (aa 367–780) (from UniProt Q62769-2 367-780) (domain or fragment)
stoichiometry N (segment-A per CaM) (Photo-Met labeled CaM [1]): 1 | stoichiometry N (segment-A per CaM) [2]: 1 | stoichiometry N (segment-A per CaM) [3]: 1 | stoichiometry N (segment-A per CaM) [4]: 1

bMunc13-2 segment-B (aa 367–903) (from UniProt Q62769-2 367-903) (domain or fragment)
stoichiometry N (segment-B per CaM) (Photo-Met labeled CaM [5]): 1

bMunc13-2 segment-C (aa 703–742) (peptide)
stoichiometry N (segment-C per CaM) (Photo-Met labeled CaM [1]): 1 | Kd [6]: 159 nM

Reference: PMC7017353, “Delineating the Molecular Basis of the Calmodulin–bMunc13-2 Interaction by Cross-Linking/Mass Spectrometry—Evidence for a Novel CaM Binding Motif in bMunc13-2” (Cells, 2020)
